Experimental data taken from patent US20160257760A1 (OXFORD BIOTHERAPEUTICS, published 2016).

What was measured:
LCQKYSEV = target: T1, LCQKYSEV; assay: peptide microarray, 1 µg/mL LY75_A1, anti-human IgG Alexa 647
T1 peptide: LCQKYSEV

TSCSERHF = target: T2, TSCSERHF; assay: as above
T2 peptide: TSCSERHF

FTSCSERH = target: T3, FTSCSERH; assay: as above
T3 peptide: FTSCSERH

RHFVSLCQ = target: T4, RHFVSLCQ; assay: as above
T4 peptide: RHFVSLCQ

SLCQKYSE = target: T5, SLCQKYSE; assay: as above
T5 peptide: SLCQKYSE

VSLCQKYS = target: T6, VSLCQKYS; assay: as above
T6 peptide: VSLCQKYS

SERHFVSL = target: T7, SERHFVSL; assay: as above
T7 peptide: SERHFVSL

SCSERHFV = target: T8, SCSERHFV; assay: as above
T8 peptide: SCSERHFV

ERHFVSLC = target: T9, ERHFVSLC; assay: as above
T9 peptide: ERHFVSLC

CQKYSEVK = target: T10, CQKYSEVK; assay: as above
T10 peptide: CQKYSEVK

FVSLCQKY = target: T11, FVSLCQKY; assay: as above
T11 peptide: FVSLCQKY

QKYSEVKS = target: T12, QKYSEVKS; assay: as above
T12 peptide: QKYSEVKS

YLNNLYKI = target: T13, YLNNLYKI; assay: as above
T13 peptide: YLNNLYKI

KIIPKTLT = target: T14, KIIPKTLT; assay: as above
T14 peptide: KIIPKTLT

NLYKIIPK = target: T15, NLYKIIPK; assay: as above
T15 peptide: NLYKIIPK

PKTLTWHS = target: T16, PKTLTWHS; assay: as above
T16 peptide: PKTLTWHS

YKIIPKTL = target: T17, YKIIPKTL; assay: as above
T17 peptide: YKIIPKTL

KTLTWHSA = target: T18, KTLTWHSA; assay: as above
T18 peptide: KTLTWHSA

VKYLNNLY = target: T19, VKYLNNLY; assay: as above
T19 peptide: VKYLNNLY

LNNLYKII = target: T20, LNNLYKII; assay: as above
T20 peptide: LNNLYKII

LYKIIPKT = target: T21, LYKIIPKT; assay: as above
T21 peptide: LYKIIPKT

SCYKVFHA = target: T22, SCYKVFHA; assay: as above
T22 peptide: SCYKVFHA

LSCYKVFH = target: T23, LSCYKVFH; assay: as above
T23 peptide: LSCYKVFH

SLSCYKVF = target: T24, SLSCYKVF; assay: as above
T24 peptide: SLSCYKVF

CYKVFHAE = target: T25, CYKVFHAE; assay: as above
T25 peptide: CYKVFHAE

[1] = target: T26, LY75 (DEC-205) on COLO205 cells (human, UniProt O60449 28-1722); assay: competitive FACS on COLO205 cells
T26 construct: Endogenous LY75 on COLO205 human colorectal adenocarcinoma cells; also called Lymphocyte antigen 75

DDHFTYSR = target: T27, DDHFTYSR; assay: peptide microarray, 1 µg/mL LY75_A1, anti-human IgG Alexa 647
T27 peptide: DDHFTYSR

DHFTYSRY = target: T28, DHFTYSRY; assay: as above
T28 peptide: DHFTYSRY

YPWHRFPV = target: T29, YPWHRFPV; assay: as above
T29 peptide: YPWHRFPV

WHRFPVTF = target: T30, WHRFPVTF; assay: as above
T30 peptide: WHRFPVTF

SRYPWHRF = target: T31, SRYPWHRF; assay: as above
T31 peptide: SRYPWHRF

HFTYSRYP = target: T32, HFTYSRYP; assay: as above
T32 peptide: HFTYSRYP

FTYSRYPW = target: T33, FTYSRYPW; assay: as above
T33 peptide: FTYSRYPW

YSRYPWHR = target: T34, YSRYPWHR; assay: as above
T34 peptide: YSRYPWHR

T26 sequence (O60449 28-1722 limits assumed): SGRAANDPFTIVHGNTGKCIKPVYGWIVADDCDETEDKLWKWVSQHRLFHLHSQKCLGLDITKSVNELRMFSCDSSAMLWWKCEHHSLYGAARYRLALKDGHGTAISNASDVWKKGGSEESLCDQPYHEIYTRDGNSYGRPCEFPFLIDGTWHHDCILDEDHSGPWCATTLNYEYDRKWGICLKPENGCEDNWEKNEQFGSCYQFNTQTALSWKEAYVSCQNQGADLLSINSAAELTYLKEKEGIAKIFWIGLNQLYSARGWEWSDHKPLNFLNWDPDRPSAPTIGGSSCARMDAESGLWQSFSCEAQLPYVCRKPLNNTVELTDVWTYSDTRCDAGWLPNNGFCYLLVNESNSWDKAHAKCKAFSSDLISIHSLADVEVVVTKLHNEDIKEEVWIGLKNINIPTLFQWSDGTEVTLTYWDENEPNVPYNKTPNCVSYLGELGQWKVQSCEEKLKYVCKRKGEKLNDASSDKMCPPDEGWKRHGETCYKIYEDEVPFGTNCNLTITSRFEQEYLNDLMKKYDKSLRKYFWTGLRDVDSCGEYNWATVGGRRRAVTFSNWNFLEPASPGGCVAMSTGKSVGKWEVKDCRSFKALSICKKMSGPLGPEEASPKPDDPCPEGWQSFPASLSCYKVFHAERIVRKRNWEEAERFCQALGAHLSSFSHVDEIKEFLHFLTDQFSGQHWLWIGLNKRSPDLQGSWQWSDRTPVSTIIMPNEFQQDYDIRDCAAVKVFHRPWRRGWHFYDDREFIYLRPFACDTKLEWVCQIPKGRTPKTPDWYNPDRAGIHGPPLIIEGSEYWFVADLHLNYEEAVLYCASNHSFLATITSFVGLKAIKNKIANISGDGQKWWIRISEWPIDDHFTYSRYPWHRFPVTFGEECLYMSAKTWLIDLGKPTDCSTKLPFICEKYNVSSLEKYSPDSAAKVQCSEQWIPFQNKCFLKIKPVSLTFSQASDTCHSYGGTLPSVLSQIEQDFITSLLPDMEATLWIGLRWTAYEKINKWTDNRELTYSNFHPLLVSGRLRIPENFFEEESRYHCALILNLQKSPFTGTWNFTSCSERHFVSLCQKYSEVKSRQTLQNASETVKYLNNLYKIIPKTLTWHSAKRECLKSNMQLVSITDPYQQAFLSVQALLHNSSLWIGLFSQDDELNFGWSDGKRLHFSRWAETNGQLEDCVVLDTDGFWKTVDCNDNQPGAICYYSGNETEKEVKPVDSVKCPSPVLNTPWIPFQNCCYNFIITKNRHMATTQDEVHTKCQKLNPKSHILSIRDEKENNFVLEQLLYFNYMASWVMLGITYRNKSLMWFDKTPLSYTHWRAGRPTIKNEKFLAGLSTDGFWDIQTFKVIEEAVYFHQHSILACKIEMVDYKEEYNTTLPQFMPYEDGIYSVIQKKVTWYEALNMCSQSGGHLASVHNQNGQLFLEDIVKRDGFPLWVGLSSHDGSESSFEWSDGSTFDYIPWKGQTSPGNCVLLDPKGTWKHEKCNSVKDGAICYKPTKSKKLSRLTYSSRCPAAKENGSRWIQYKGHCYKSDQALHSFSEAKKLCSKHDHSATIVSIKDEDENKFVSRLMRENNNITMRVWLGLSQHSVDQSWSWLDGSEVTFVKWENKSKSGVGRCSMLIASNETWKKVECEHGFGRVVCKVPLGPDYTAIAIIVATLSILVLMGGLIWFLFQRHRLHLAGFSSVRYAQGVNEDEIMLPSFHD

B1: LY75_A1 monoclonal antibody (antibody, V domains shown)
VH: EVQLVESGGGLVKPGGSLRLSCAASGFTYSNAWMSWVRQAPGKGLEWVGRIKSKTDGGTTDYAAPVQGRFTISRDDSKNTLYLQMNSLKTEDTAVYYCTIFGVVSFDYWGQGTLVTVSS
VL: DVQMTQSPSSLSASVGDRVTITCRASQSISDYLSWYQQRPGKAPNLLIYAASNLKTGVPSRFSGSGSGTDFTLTISTLQPEDFATYYCQQSYRSPWTFGQGTKVEIKR
notes: also called LY75A1 antibody; LY75_A1 antibody
B1: no binding (tested: 1 µg/mL) (LCQKYSEV); binds (TSCSERHF); binds (FTSCSERH). B1: no binding (tested: 1 µg/mL) (RHFVSLCQ); no binding (tested: 1 µg/mL) (SLCQKYSE); binds (VSLCQKYS). B1: binds (SERHFVSL); binds (SCSERHFV); no binding (tested: 1 µg/mL) (ERHFVSLC). B1: no binding (tested: 1 µg/mL) (CQKYSEVK); binds (FVSLCQKY); no binding (tested: 1 µg/mL) (QKYSEVKS). B1: binds (YLNNLYKI); no binding (tested: 1 µg/mL) (KIIPKTLT); no binding (tested: 1 µg/mL) (NLYKIIPK). B1: no binding (tested: 1 µg/mL) (PKTLTWHS); no binding (tested: 1 µg/mL) (YKIIPKTL); no binding (tested: 1 µg/mL) (KTLTWHSA). B1: binds (VKYLNNLY); binds (LNNLYKII); no binding (tested: 1 µg/mL) (LYKIIPKT). B1: binds (SCYKVFHA); binds (LSCYKVFH); binds (SLSCYKVF). B1: no binding (tested: 1 µg/mL) (CYKVFHAE); binds [1]; binds (DDHFTYSR). B1: binds (DHFTYSRY); binds (YPWHRFPV); binds (WHRFPVTF). B1: binds (SRYPWHRF); binds (HFTYSRYP); no binding (tested: 1 µg/mL) (FTYSRYPW). B1: binds (YSRYPWHR).
